The assay concerns the target membrane P-selectin coated in a flow chamber (low and high density) (UniProt P16109). The experiment in a line: cell-based or functional assay.

membrane P-selectin coated in a flow chamber (low and high density), sequence (P16109 42-830 limits assumed): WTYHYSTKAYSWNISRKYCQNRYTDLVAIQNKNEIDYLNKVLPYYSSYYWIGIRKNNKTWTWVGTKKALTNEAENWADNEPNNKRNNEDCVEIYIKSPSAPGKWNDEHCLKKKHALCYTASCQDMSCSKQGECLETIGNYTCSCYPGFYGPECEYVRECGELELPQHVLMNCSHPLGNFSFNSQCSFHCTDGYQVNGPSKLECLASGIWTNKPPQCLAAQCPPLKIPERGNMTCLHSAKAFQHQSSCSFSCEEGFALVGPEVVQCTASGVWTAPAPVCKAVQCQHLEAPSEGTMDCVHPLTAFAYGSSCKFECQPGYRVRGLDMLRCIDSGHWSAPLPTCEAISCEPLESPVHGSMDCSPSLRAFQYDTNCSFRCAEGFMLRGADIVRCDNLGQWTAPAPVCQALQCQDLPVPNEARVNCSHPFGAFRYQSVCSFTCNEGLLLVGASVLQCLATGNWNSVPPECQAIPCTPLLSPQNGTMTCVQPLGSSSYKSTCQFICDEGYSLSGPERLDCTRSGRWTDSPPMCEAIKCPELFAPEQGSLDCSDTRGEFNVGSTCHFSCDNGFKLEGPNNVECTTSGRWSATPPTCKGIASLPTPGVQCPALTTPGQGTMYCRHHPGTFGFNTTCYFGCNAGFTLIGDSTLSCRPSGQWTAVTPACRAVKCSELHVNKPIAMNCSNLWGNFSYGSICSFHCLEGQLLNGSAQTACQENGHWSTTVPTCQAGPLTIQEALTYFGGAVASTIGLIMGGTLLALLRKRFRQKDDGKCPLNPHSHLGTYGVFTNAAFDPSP

In turn, “G3 mouse monoclonal anti-P-selectin antibody” displayed a time to block rolling neutrophils on high density P-selectin of less than 20 min.
